The results in this text go back to US20210388110A1 (published 2021).

In general, Kd refers to a measure of binding affinity in units of concentration. A high value points to a looser complex.

Residue numbers refer to the chain shown, from its start.

The test deals with T1, soluble human GPC3 (human, UniProt P51654 25-563, limits assumed).
T1 construct: soluble human GPC3 as analyte; also called glypican 3
Kind of test: SPR (Biacore), soluble human GPC3.

T1 sequence (P51654 other isoform, or with tags, fused parts or gaps limits assumed, form in doubt): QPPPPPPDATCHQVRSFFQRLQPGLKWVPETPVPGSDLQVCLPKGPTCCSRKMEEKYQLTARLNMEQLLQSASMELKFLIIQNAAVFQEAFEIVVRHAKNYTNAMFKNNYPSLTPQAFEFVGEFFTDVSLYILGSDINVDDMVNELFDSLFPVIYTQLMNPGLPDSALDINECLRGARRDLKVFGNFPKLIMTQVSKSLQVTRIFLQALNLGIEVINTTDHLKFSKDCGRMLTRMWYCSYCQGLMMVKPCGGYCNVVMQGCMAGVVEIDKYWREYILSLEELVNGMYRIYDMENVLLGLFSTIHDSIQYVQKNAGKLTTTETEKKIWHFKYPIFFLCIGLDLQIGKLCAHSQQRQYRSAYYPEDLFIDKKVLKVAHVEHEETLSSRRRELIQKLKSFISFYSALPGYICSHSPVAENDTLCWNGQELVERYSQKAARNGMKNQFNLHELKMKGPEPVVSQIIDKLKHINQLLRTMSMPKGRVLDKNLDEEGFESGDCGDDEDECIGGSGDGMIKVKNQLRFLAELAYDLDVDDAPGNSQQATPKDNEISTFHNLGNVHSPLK

B1: H0610-G1dh/none-Hi-Kn010G3/L0000-k0 (antibody, human IgG1, kappa)
heavy: not shown
chain: EPKSSDKTHTCPPCPAPELLGGPSVFLFPPKPKDTLMISRTPEVTCVVVDVSHEDPEVKFNWYVDGVEVHNAKTKPREEQYNSTYRVVSVLTVLHQDWLNGKEYKCKVSNKALPAPIEKTISKAKGQPREPQVCTLPPSRDELTKNQVSLWCLVKGFYPSDIAVEWESNGQPENNYKTTPPVLDSDGSFFLYSKLTVDKSRWQQGNVFSCSVMHEALHNRYTQKSLSLSP
light: DIVMTQSPLSLPVTPGEPASISCRSSQSLVHSNRNTYLHWYQQKPGQAPRLLIYKVSNRFSGVPDRFSGSGSGTDFTLKISRVEAEDVGVYYCGQGTQVPYTFGQGTKLEIKRTVAAPSVFIFPPSDEQLKSGTASVVCLLNNFYPREAKVQWKVDNALQSGNSQESVTEQDSKDSTYSLSSTLTLSKADYEKHKVYACEVTHQGLSSPVTKSFNRGEC
notes: single-arm (one Fab)
With B1, the Kd was found to be 3.97 nM.

B2: GCH015-G1dh/none-Hi-Kn010G3/L0000-k0 (antibody, human IgG1, kappa)
heavy: not shown
chain: B1 chain
light: B1 light
notes: single-arm (one Fab)
The molecule B2 registered a Kd of 4.14 nM.

B3: GCH054-G1dh/none-Hi-Kn010G3/L0203-k0 (antibody, human IgG1, kappa)
heavy: not shown
chain: B1 chain
light: B1 light with L29P, L38I
notes: single-arm (one Fab)
Consider B3, for which the Kd came out at 2.48 nM.

B4: GCH040-G1dh/none-Hi-Kn010G3/L0000-k0 (antibody, human IgG1, kappa)
heavy: not shown
chain: B1 chain
light: B1 light
notes: single-arm (one Fab)
In turn, B4 came in with a Kd of 4.8 nM.

B5: GCH025-G1dh/none-Hi-Kn010G3/L0204-k0 (antibody, human IgG1, kappa)
heavy: not shown
chain: B1 chain
light: B1 light with L29P, S61R
notes: single-arm (one Fab)
B5 yielded a dissociation constant Kd of 0.67 nM.

B6: GCH006-G1dh/none-Hi-Kn010G3/L0000-k0 (antibody, human IgG1, kappa)
heavy: not shown
chain: B1 chain
light: B1 light
notes: single-arm (one Fab)
Molecule B6 had a Kd of 4.06 nM.

B7: GCH054-G1dh/none-Hi-Kn010G3/TR01L015-k0 (antibody, human IgG1, kappa)
heavy: not shown
chain: B1 chain
light: B1 light with L29P, Q42L, A48S, R50Q
notes: single-arm (one Fab)
In the case of B7, the Kd stood at 2.45 nM.

B8: GCH045-G1dh/none-Hi-Kn010G3/L0000-k0 (antibody, human IgG1, kappa)
heavy: not shown
chain: B1 chain
light: B1 light
notes: single-arm (one Fab)
In the case of B8, binding was put at a Kd of 4.63 nM.

B9: GCH007-G1dh/none-Hi-Kn010G3/L0000-k0 (antibody, human IgG1, kappa)
heavy: not shown
chain: B1 chain
light: B1 light
notes: single-arm (one Fab)
B9 gave a Kd of 4.93 nM.

B10: GCH029-G1dh/none-Hi-Kn010G3/L0000-k0 (antibody, human IgG1, kappa)
heavy: not shown
chain: B1 chain
light: B1 light
notes: single-arm (one Fab)
B10 registered a Kd of 5.01 nM.

B11: GCH054-G1dh/none-Hi-Kn010G3/L0222-k0 (antibody, human IgG1, kappa)
heavy: not shown
chain: B1 chain
light: B1 light with L29P, L38I, H39Q, G94Y
notes: single-arm (one Fab)
B11 gave a Kd of 0.0315 nM.

B12: GCH010-G1dh/none-Hi-Kn010G3/L0000-k0 (antibody, human IgG1, kappa)
heavy: not shown
chain: B1 chain
light: B1 light
notes: single-arm (one Fab)
In turn, B12 yielded a Kd of 4.12 nM.

B13: GCH035-G1dh/none-Hi-Kn010G3/L0000-k0 (antibody, human IgG1, kappa)
heavy: not shown
chain: B1 chain
light: B1 light
notes: single-arm (one Fab)
B13 returned a Kd of 4.94 nM.

B14: GCH016-G1dh/none-Hi-Kn010G3/L0000-k0 (antibody, human IgG1, kappa)
heavy: not shown
chain: B1 chain
light: B1 light
notes: single-arm (one Fab)
B14 displayed a Kd of 4.59 nM.

B15: GCH027-G1dh/none-Hi-Kn010G3/L0000-k0 (antibody, human IgG1, kappa)
heavy: not shown
chain: B1 chain
light: B1 light
notes: single-arm (one Fab)
On to B15, for which binding was put at a Kd of 3.83 nM.

B16: GCH014-G1dh/none-Hi-Kn010G3/L0000-k0 (antibody, human IgG1, kappa)
heavy: not shown
chain: B1 chain
light: B1 light
notes: single-arm (one Fab)
For B16, binding was put at a Kd of 4.2 nM.

B17: GCH054-G1dh/none-Hi-Kn010G3/TR01L018-k0 (antibody, human IgG1, kappa)
heavy: not shown
chain: B1 chain
light: B1 light with R24Q, S25A, Q27E, L29P, Q42L, A48S, R50Q
notes: single-arm (one Fab)
B17 showed a Kd of 2.59 nM.

B18: GCH054-G1dh/none-Hi-Kn010G3/L0212-k0 (antibody, human IgG1, kappa)
heavy: not shown
chain: B1 chain
light: B1 light with S25P, L29P, G94Y
notes: single-arm (one Fab)
With B18, binding was put at a Kd of 0.517 nM.

B19: GCH053-G1dh/none-Hi-Kn010G3/L0000-k0 (antibody, human IgG1, kappa)
heavy: not shown
chain: B1 chain
light: B1 light
notes: single-arm (one Fab)
B19 showed a Kd of 4.05 nM.

B20: GCH054-G1dh/none-Hi-Kn010G3/TR01L016-k0 (antibody, human IgG1, kappa)
heavy: not shown
chain: B1 chain
light: B1 light with L29P, Q42L, A48S, R50Q, G94Y
notes: single-arm (one Fab)
B20 had a Kd of 0.763 nM.

B21: GCH039-G1dh/none-Hi-Kn010G3/L0000-k0 (antibody, human IgG1, kappa)
heavy: not shown
chain: B1 chain
light: B1 light
notes: single-arm (one Fab)
As to B21, the Kd came out at 4.95 nM.

B22: GCH054-G1dh/none-Hi-Kn010G3/L0200-k0 (antibody, human IgG1, kappa)
heavy: not shown
chain: B1 chain
light: B1 light with S25P, L29P
notes: single-arm (one Fab)
On to B22, for which binding was put at a Kd of 1.18 nM.

B23: GCH054-G1dh/none-Hi-Kn010G3/L0262-k0 (antibody, human IgG1, kappa)
heavy: not shown
chain: B1 chain
light: B1 light with S28P, L29P, G94A
notes: single-arm (one Fab)
B23: the affinity, expressed as Kd, was 0.000525 nM.

B24: GCH054-G1dh/none-Hi-Kn010G3/L0246-k0 (antibody, human IgG1, kappa)
heavy: not shown
chain: B1 chain
light: B1 light with L29P, L38I, H39Q, G94S
notes: single-arm (one Fab)
B24 yielded a Kd of 0.0315 nM.

B25: GCH054-G1dh/none-Hi-Kn010G3/L0215-k0 (antibody, human IgG1, kappa)
heavy: not shown
chain: B1 chain
light: B1 light with S28P, L29P, L38I
notes: single-arm (one Fab)
With B25, the Kd is 1.62 nM.

B26: GCH042-G1dh/none-Hi-Kn010G3/L0000-k0 (antibody, human IgG1, kappa)
heavy: not shown
chain: B1 chain
light: B1 light
notes: single-arm (one Fab)
B26 came in with a Kd of 4.89 nM.

B27: GCH013-G1dh/none-Hi-Kn010G3/L0000-k0 (antibody, human IgG1, kappa)
heavy: not shown
chain: B1 chain
light: B1 light
notes: single-arm (one Fab)
As for B27, the Kd turned out to be 4.44 nM.

B28: GCH054-G1dh/none-Hi-Kn010G3/L0249-k0 (antibody, human IgG1, kappa)
heavy: not shown
chain: B1 chain
light: B1 light with S25P, L29P, L38I, H39Q, G94S
notes: single-arm (one Fab)
Molecule B28 came in with a Kd of 0.00361 nM.

B29: GCH054-G1dh/none-Hi-Kn010G3/L0201-k0 (antibody, human IgG1, kappa)
heavy: not shown
chain: B1 chain
light: B1 light with S28P, L29P
notes: single-arm (one Fab)
In turn, B29 had a Kd of 1.08 nM.

B30: GCH019-G1dh/none-Hi-Kn010G3/L0000-k0 (antibody, human IgG1, kappa)
heavy: not shown
chain: B1 chain
light: B1 light
notes: single-arm (one Fab)
With B30, the affinity, expressed as Kd, was 4.36 nM.

B31: GCH043-G1dh/none-Hi-Kn010G3/L0000-k0 (antibody, human IgG1, kappa)
heavy: not shown
chain: B1 chain
light: B1 light
notes: single-arm (one Fab)
The molecule B31 had a Kd of 3.74 nM.
